The target of series [1] is T1, Shs1(Δ2–18/Δα0 E344C)-capped, otherwise Cys-less septin hetero-octamer (S. cerevisiae, UniProt Q07657 1-551; P32468 1-407; P32457 1-520; P25342 1-322, Δ2–18 | C29V | C148S | E344C | C40A | C278S | C124V | C253V | C279V | C266S, Alexa Fluor 555 maleimide (donor) on C344 (E344C)).
T1 construct: Cdc12, S. cerevisiae mitotic septin, Cys-less variant; Cdc3, S. cerevisiae mitotic septin, Cys-less variant; Cdc10, S. cerevisiae mitotic septin, Cys-less variant; also called Shs1 Δα0^AF555; Shs1(Δα0) complexes; source: E. coli NiCo21 (DE3), subunits co-expressed, purified (IMAC, chitin-agarose flow-through, SEC), maleimide dye-labelled; not shown: His6, N-terminal, kept; copies: 2 + 2 + 2 + 2
T1 sequence (Q07657 other isoform, or with tags, fused parts or gaps with the stated changes): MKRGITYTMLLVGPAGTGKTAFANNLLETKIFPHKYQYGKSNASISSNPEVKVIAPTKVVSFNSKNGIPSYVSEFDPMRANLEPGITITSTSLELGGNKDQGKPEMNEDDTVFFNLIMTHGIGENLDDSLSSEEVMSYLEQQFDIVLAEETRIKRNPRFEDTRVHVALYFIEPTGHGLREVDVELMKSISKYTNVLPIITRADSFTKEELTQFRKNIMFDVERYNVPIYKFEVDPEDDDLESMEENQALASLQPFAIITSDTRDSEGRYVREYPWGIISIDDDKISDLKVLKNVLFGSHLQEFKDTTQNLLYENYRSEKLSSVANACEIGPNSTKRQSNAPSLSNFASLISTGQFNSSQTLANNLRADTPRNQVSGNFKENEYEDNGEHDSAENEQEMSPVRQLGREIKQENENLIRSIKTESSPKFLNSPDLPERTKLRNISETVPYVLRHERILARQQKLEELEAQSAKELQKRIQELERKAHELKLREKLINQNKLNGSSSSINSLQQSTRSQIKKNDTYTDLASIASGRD
Nature of the series: FRET or BRET; 25 nM donor (AF555)-labelled octamers titrated with acceptor (AF647)-labelled octamers, serial dilutions from 100 nM; 45 mM KCl, 50 mM Tris-HCl pH 8.0; room temperature, 1 h equilibration; triplicate; PCA and curve fit; apparent Kd of end-to-end association of rods. Particulars: both partners purified.

For series [2], the target named is T2, Shs1(E344C)-capped, otherwise Cys-less septin hetero-octamer (Shs1-Cdc12-Cdc3-Cdc10-Cdc10-Cdc3-Cdc12-Shs1) (S. cerevisiae, UniProt Q07657 1-551; P32468 1-407; P32457 1-520; P25342 1-322, C29V | C148S | E344C | C40A | C278S | C124V | C253V | C279V | C266S, Alexa Fluor 555 maleimide (donor) or Alexa Fluor 647 maleimide (acceptor) on C344 (E344C)).
T2 construct: Cdc12, S. cerevisiae mitotic septin, Cys-less variant; Cdc3, S. cerevisiae mitotic septin, Cys-less variant; Cdc10, S. cerevisiae mitotic septin, Cys-less variant; Donor- and acceptor-labelled preparations are written as this one molecule; also called Shs1^AF555; Shs1^AF647; source: E. coli NiCo21 (DE3), subunits co-expressed, purified (IMAC, chitin-agarose flow-through, SEC), maleimide …
The description is as above. The settings on record: both partners purified.

Series [3] concerns the target T3, Cdc11(E294C)-capped, otherwise Cys-less septin hetero-octamer (Cdc11-Cdc12-Cdc3-Cdc10-Cdc10-Cdc3-Cdc12-Cdc11) (S. cerevisiae, UniProt P32458 1-415; P32468 1-407; P32457 1-520; P25342 1-322, C43F | C137A | C138A | E294C | C40A | C278S | C124V | C253V | C279V | C266S, Alexa Fluor 555 maleimide (donor) or Alexa Fluor 647 maleimide (acceptor) on C294 (E294C); 0.7-0.8 dye molecules per subunit).
T3 construct: intact CTE (residues 303-415) restored; Cdc12, S. cerevisiae mitotic septin, Cys-less variant; Cdc3, S. cerevisiae mitotic septin, Cys-less variant; Cdc10, S. cerevisiae mitotic septin, Cys-less variant; The same preparation was labelled separately with donor (AF555) or acceptor (AF647); both are written as this one molecule; also called Cdc11^AF555; Cdc11^AF647; source: E. coli NiCo21 (DE3), …
The series is described as above. The settings on record: both partners purified.

Series [4] concerns the molecule itself. The description is as above.
Series [5] addresses T3, Cdc11(E294C)-capped, otherwise Cys-less …. Nature of the series: FRET or BRET; 25 nM Cdc11^AF555 octamers assembled into filaments at low salt, titrated with Bni5^AF647 (maximum 500 nM); apparent Kd. Particulars: both partners purified. (In BRET a luciferase serves as donor, and the signal depends on an acceptor being close.)
For series [6] the target is unchanged. Description: FRET or BRET; 15 nM Cdc11^AF555 octamers assembled into filaments at low salt, titrated with Bni5^AF647 (maximum 500 nM); apparent Kd. The settings on record: both partners purified.

B1: Cdc11(Δα0 E294C)-capped, otherwise Cys-less septin hetero-octamer (complex, S. cerevisiae)
chain 1: MRGITFTVMIVGQSGSGRSTFINTLFGQQVVDTSTTILLPTDTSTEIDLQLREETVELEDDEGVKIQLNIIDTPGFGDSLDNSPSFEIISDYIRHQYDEILLEESRVRRNPRFKDGRVHAALYLINPTGHGLKEIDVEFIRQLGSLVNIIPVISKSDSLTRDELKLNKKLIMEDIDRWNLPIYNFPFDEDEISDEDYETNMYLRTLLPFAIIGSNEVYEMGGDVGTIRGRKYPWGILDVEDSSISDFVILRNALLISHLHDLKNYTHEILYERYRTCALSGESVAAESIRPNLTKLNGSSSSSTTTRRNTNPFKQSNNINNDVLNPASDMHGQSTGENNETYMTREEQIRLEEERLKAFEERVQQELLLKRQELLQREKELREIEARLEKEAKIKQEE
chain 2: MSAATATAAPVPPPVGISNLPNQRYKIVNEEGGTFTVMLAGESGLGKTTFINTLFQTVLKRADGQQHRQEPIRKTVEIDITRALLEEKHFELRVNVIDTPGFGDNVNNNKAWQPLVDFIDDQHDSYMRQEQQPYRTKKFDLRVHAVLYFIRPTGHGLKPIDIETMKRLSTRANLIPVIAKADTLTAQELQQFKSRIRQVIEAQEIRIFTPPLDADSKEDAKSGSNPDSAAVEHARQLIEAMPFAIVGSEKKFDNGQGTQVVARKYPWGLVEIENDSHSDFRKLRALLLRTYLLDLISTTQEMHYETYRRLRLEGHENTGEGNEDFTLPAIAPARKLSHNPRYKEEENALKKYFTDQVKAEEQRFRQWEQNIVNERIRLNGDLEEIQGKVKKLEEQVKSLQVKKSHLK
chain 3: MSLKEEQVSIKQDPEQEERQHDQFNDVQIKQESQDHDGVDSQYTNGTQNDDSERFEAAESDVKVEPGLGMGITSSQSEKGQVLPDQPEIKFIRRQINGYVGFANLPKQWHRRSIKNGFSFNLLVVGPDGIGKTTLMKTLFNNDDIEANLVKDYEEELANDQEEEEGQGEGHENQSQEQRHKVKIKSYESVIEENGVKLNLNVIDTEGFGDFLNNDQKSWDPIIKEIDSRFDQYLDAENKINRHSINDKRIHAVLYFIEPTGHYLKPLDLKFMQSVYEKVNLIPVIAKSDILTDEEILSFKKTIMNQLIQSNIELFKPPIYSNDDAENSHLSERLFSSLPYAVIGSNDIVENYSGNQVRGRSYPWGVIEVDNDNHSDFNLLKNLLIKQFMEELKERTSKILYENYRSSKLAKLGIKQDNSVFKEFDPISKQQEEKTLHEAKLAKLEIEMKTVFQQKVSEKEKKLQKSETELFARHKEMKEKLTKQLKALEDKKKQLELSINSASPNVNHSPVPTKKKGFLR
chain 4: MDPLSSVQPASYVGFDTITNQIEHRLLKKGFQFNIMVVGQSGLGKSTLINTLFASHLIDSATGDDISALPVTKTTEMKISTHTLVEDRVRLNINVIDTPGFGDFIDNSKAWEPIVKYIKEQHSQYLRKELTAQRERFITDTRVHAILYFLQPNGKELSRLDVEALKRLTEIANVIPVIGKSDTLTLDERTEFRELIQNEFEKYNFKIYPYDSEELTDEELELNRSVRSIIPFAVVGSENEIEINGETFRGRKTRWSAINVEDINQSDFVYLREFLIRTHLQDLIETTSYIHYEGFRARQLIALKENANSRSSAHMSSNAIQR
modifications: Alexa Fluor 555 maleimide (donor) or Alexa Fluor 647 maleimide (acceptor) on C294 (E294C)
notes: Cdc12, S. cerevisiae mitotic septin, Cys-less variant; Cdc3, S. cerevisiae mitotic septin, Cys-less variant; Cdc10, S. cerevisiae mitotic septin, Cys-less variant; also called Cdc11 Δα0^AF555; Cdc11 Δα0^AF647; source: E. coli NiCo21 (DE3), subunits co-expressed, purified (IMAC, chitin-agarose flow-through, SEC), maleimide dye-labelled; not shown: His6, N-terminal, kept; copies: 2 + 2 + 2 + 2
B1: the Kd in series [1] was found to be 9.89 nM; in series [2], 8.13 nM; in series [3], 19.5 nM; in series [4] it was 33.2 nM.

B2: Bni5 (Bud neck-interacting protein 5), type II myosin-binding protein (natural protein, S. cerevisiae, UniProt P53890 1-448, looked up)
chain: MGLDQDKIKKRLSQIEIDINQMNQMIDENLQLVEPAEDEAVEDNVKDTGVVDAVKVAETALFSGNDGADSNPGDSAQVEEHKTAQVHIPTENEANKSTDDPSQLSVTQPFIAKEQITHTAIAIGDSYNSFVANSAGNEKAKDSCTENKEDGTVNIDQNRGEADVEIIENNDDEWEDEKSDVEEGRVDKGTEENSEIESFKSPMPQNNTLGGENKLDAELVLDKFSSANKDLDIQPQTIVVGGDNEYNHESSRLADQTPHDDNSENCPNRSGGSTPLDSQTKIFIPKKNSKEDGTNINHFNSDGDGQKKMANFETRRPTNPFRVISVSSNSNSRNGSRKSSLNKYDSPVSSPITSASELGSIAKLEKRHDYLSMKCIKLQKEIDYLNKMNAQGSLSMEDGKRLHRAVVKLQEYLDKKTKEKYEVGVLLSRHLRKQIDRGENGQFWIGTK
modifications: Alexa Fluor 647 maleimide on the native cysteines Cys-144, Cys-266 and Cys-375 (2.7 dye molecules per protein)
notes: Bni5, S. cerevisiae; the BNI5 ORF cloned behind His8 and a human rhinovirus 3C protease site in pH3c-LIC; also called Bni5^AF647; acceptor dye-labeled Bni5; source: E. coli NiCo21 (DE3), purified (IMAC, chitin-agarose, SEC), maleimide dye-labelled
Turning to B2, the Kd in series [5] turned out to be 210 nM; in series [6] it was 222 nM.

Source of the values: PMC4653696 (The Journal of Biological Chemistry, 2015).
